We go through 3 substances from patent US20070185028A1, “Compositions and methods for treatment of protein misfolding and protein aggregation diseases” (priority 2004, published 2007).

What all share (type): biochemical
One assay has as its target T1, β2-microglobulin (β2m) (Homo sapiens, UniProt P61769).
T1 construct: purchased MP Biomedical
As to the kind of experiment: β2-microglobulin fibrillation ThT assay. The conditions noted are these: 1:1 ratio. As to the method:
Addition of 5.8 μM αB crystallin peptides, ST, DR, LT, HG, and ER decreased the ThT fluorescence of β2m by 40-64%. When the concentration of the αB crystallin peptides was increased to 29 μM and 145 μM, no further decrease in ThT fluorescence was observed. The negative control peptide AT1 had no effect on β2m fibrillation even at a concentration as high as 290 μM. All five αB crystallin peptides inhibited β2m fibrillation at sub-stoichometric and stoichometric concentrations (5.8 μM and 29 μM).
The Thioflavin T (ThT) fluorescence of β2m in the presence of varying concentrations of αB crystallin peptides and controls was measured. […] When the concentration of the peptides was increased to 29 μM (1:1::peptide:β2m), the αB crystallin peptides decreased the ThT fluorescence by 35-65%. When the concentration of the peptides was increased further to 145 μM ([…]), the αB crystallin peptides decreased the ThT fluorescence by 13-27%. […] The formation and inhibition of β2-microglobulin fibrils was verified microscopically.
β2-microglobulin fibrillation ThT assays were performed as described previously. Raman et al., Biochem J 392:573-81, 2005; Ivanova et al., Proc Natl Acad Sci USA 101:10584-9, 2004. Peptides were dissolved to 2 mM in 0.25% DMSO and diluted accordingly, while β2-microglobulin was dissolved in 25 mM sodium acetate, 25 mM sodium phosphate, pH 2.4. For the 5:1::peptide:β2-microglobulin assay, 10 μL of 430 μM peptide was mixed with 10 μL of 86 μM β2-microglobulin, 7 μl of 25 mM sodium acetate, 25 mM sodium phosphate, pH 2.4 and 3 μL of 1 mM ThT. For the 1:1::peptide:β2-microglobulin assay, 10 μL of 86 μM peptide was mixed with 10 μL of 86 μM (2-microglobulin, 7 μl of 25 mM sodium acetate, 25 mM sodium phosphate, pH 2.4 and 3 μL of 1 mM ThT. For the 1:5::peptide:β2-microglobulin assay, 10 μL of 17.2 μM peptide was mixed with 10 μL of 86 μM β2-microglobulin, 7 μl of 25 mM sodium acetate, 25 mM sodium phosphate, pH 2.4 and 3 μL of 1 mM ThT. ThT fluorescence was measured using a Perkin Elmer Victor^3 V plate reader. Assays were performed in 384-well fluorescence plates in duplicates or triplicates. Samples were incubated at 37° C. ThT fluorescence was measured continuously for 180 minutes. The effect of the peptides and APS was calculated as percentage fibril formation relative to β2-microglobulin alone (100%) at the end of 180 minutes.

For the next assay, the target named is ADH (Equus caballus, UniProt P00327). The experiment in a line: Chaperone assay, thermal aggregation of ADH at 50° C. The following applies: 50:1 molar ratio of peptide:ADH, sixty minutes, 340 nm. As for the experimental part: (§1) The chaperone activity of the peptides was measured as their ability to protect against the thermal aggregation of three chaperone target proteins βH crystallin, ADH and CS in chaperone assays performed at 50° C. (FIG. 19). A non-interactive αB crystallin sequence 111HGKHEERQDE120 was used as the negative control in the chaperone assays (FIG. 19). Based on near and far UVCD, the three target proteins unfolded in the order: CS>>>ADH>>βH crystallin when they were heated at 50° C. for sixty minutes (FIGS. 15 and 16). The thermal aggregation of βH crystallin, ADH and CS was measured as light scattering at λ=340 nm in the presence and absence of each peptide. The chaperone activity of each peptide was calculated as percent protection in which the aggregation of each target protein in the absence of any peptides was set at 0% protection (FIG. 19). The interactive peptides […] and 131LTITSSLSDGV141 were effective inhibitors of aggregation of all three chaperone target proteins.
ADH, sequence (P00327 whole entry): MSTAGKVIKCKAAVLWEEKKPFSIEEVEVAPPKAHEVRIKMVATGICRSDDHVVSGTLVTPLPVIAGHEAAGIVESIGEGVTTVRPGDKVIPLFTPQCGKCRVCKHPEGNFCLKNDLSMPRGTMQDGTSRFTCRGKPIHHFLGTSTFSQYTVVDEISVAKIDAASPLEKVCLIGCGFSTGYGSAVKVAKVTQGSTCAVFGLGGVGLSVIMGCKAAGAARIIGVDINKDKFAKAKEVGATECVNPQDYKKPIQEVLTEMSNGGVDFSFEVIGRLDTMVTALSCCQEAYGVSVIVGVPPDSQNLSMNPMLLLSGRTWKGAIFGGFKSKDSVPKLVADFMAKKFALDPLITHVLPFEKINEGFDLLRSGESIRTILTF
(§2) A (top left): thermal aggregation of chaperone target proteins βH crystallin, ADH and CS in the absence of peptides was measured as light scattering at λ=340 nm. Each target protein was heated at 50° C. for sixty minutes in the absence or presence of one of the peptides. […] The chaperone activity of each peptide was calculated as percent protection in which the aggregation of each target protein in the absence of any peptides was set at 0% protection. The ability of the 73DRFSVNLDVKHFS85, 131LTITSSLSDGV141 and 111HGKHEERQDE120 to protect against the thermal aggregation of βH crystallin (B: top right), ADH (C: bottom left) and CS (D: bottom right) were tested in vitro (vertical bars). […] A 10:1 molar ratio of peptide:target protein was sufficient in conferring significant protection against the aggregation of CS by 73DRFSVNLDVKHFS85 and 131LTITSSLSDGV141.

The test system of a further assay is βH crystallin. As to the kind of experiment: Chaperone assay, thermal aggregation of βH crystallin at 50° C. The conditions noted are these: 50:1 molar ratio of peptide:βH crystallin, sixty minutes, 340 nm. As for the experimental part:
as §1, §2

The next assay concerns the target amyloid beta (1-42) (Homo sapiens, UniProt P05067). As to the kind of experiment: Cu+++-induced aggregation of amyloid beta (1-42), light scattering 360 nm. The following applies: 100 mM Cu+++. As to the method: In vitro assays were also performed to measure the ability of the human αB crystallin derived peptides identified in Example 1 to inhibit aggregation of Cu^+++-induced amyloid beta (1-42) aggregation. Aggregation assays were performed using routine procedures, in the presence or absence of a synthesized peptide identified in Example 1, in the presence of 100 mM Cu^+++. Aggregation was measured spectrophotometrically as light scattering at a wavelength of 360 nm. Aggregated amyloid-beta was assigned a value of 100% aggregation and used to normalize aggregation in the presence of synthesize peptides.
Aggregation was measured spectrophotometrically as light scattering at a wavelength of 360 nm. Aggregated amyloid-beta was assigned a value of 100% aggregation and used to normalize aggregation in the presence of synthesize peptides. Aggregation was plotted as a bar graph with the standard error for duplicate experiments. The 1 st vertical bar is the scattering measured for aggregated amyloid-beta (100% aggregation) in the presence of 100 mM Cu^+++. The 2nd-4th vertical bars is the scattering from amyloid-beta in the presence of wild type recombinant human αB crystallin. The 5th-13th vertical bars are the scattering of amyloid-beta in the presence of the synthetic peptides, DRFSVNLDVKHFS or LTITSSLSDGV or HGKHEERQDE at selected concentrations. A prefix of 10× represents a 10:1 molar concentration of amyloid-beta to either wild type αB crystallin or its peptides. A prefix of 1× represents a 1:1 molar concentration of amyloid-beta to either wt αB crystallin or its peptides. A prefix of 0.1× represents a 1:10 molar concentration of amyloid-beta to either wt αB crystallin or its peptides.

T1 sequence (P61769 21-119): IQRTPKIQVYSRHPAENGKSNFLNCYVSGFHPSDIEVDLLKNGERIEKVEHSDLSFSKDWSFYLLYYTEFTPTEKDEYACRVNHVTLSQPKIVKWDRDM

EERQ: the “inhibition of β2-microglobulin fibril formation, HG derived peptides” value with β2-microglobulin (β2m) is given as ~100%.
In the case of LTITSSLSDGV, the “percent protection against thermal aggregation of ADH” value in the assay with ADH is on record as “approximately 30%”. Moreover, the “percent protection against thermal aggregation of βH crystallin” value in the assay on βH crystallin was “approximately 30%”. Also, the “prevention of Cu+++-induced aggregation of amyloid-beta” value with amyloid beta (1-42) (1:1 and 1:10 molar ratio of amyloid-beta to peptide) was “equally effective”; in the assay with amyloid beta (1-42) (10:1 molar ratio of amyloid-beta to peptide), “less effective”.
For the substance RQDE, the “inhibition of β2-microglobulin fibril formation, HG derived peptides” value in the assay with β2-microglobulin (β2m) was ~100%.
